Results from article PMC6197226 (2018).

Columns and labels:
[1] = molecular target: p62 ZZ domain (aa 120-171) (human, UniProt Q13501 120-171)
[2] = molecular target: p62 ZZ domain (aa 115-190) (human, UniProt Q13501 115-190); assay: MST

Kd [1] [µM] | Kd [2] [µM] | Binder
14 | 3.2 | RAEE [RAEE peptide]
5.6 | 1.9 | REEE [REEE peptide]
